We go through two substances from article PMC5003418.

As a reminder, the stoichiometry N is the number of molecules, sites or subunits per partner or assembly.

The target in assay [1] is HIV-1 integrase R269A/K273A, recombinant, 6xHis-tagged (HIV-1). The assay can be described thus: SEC. A general note: Size exclusion chromatography separates by hydrodynamic size, large species first.
Assay [2] addresses HIV-1 integrase K264A/K266A, recombinant, 6xHis-tagged (HIV-1). The assay can be described thus: SEC.

Regarding “HIV-1 integrase R269A/K273A, recombinant, 6xHis-tagged (enzyme)”, the stoichiometry N in assay [1] is 4. As to “HIV-1 integrase K264A/K266A, recombinant, 6xHis-tagged (enzyme)”, the stoichiometry N in assay [2] came to 4.
